Results published in patent US20200323888A1, “INHIBITORS” (VESTLANDETS INNOVASJONSSELSKAP AS, priority 2017, published 2020).
pIC50: −log10 of the molar value. Primed or numbered codes have the meaning given here. Ac′ = acetamide linker; CoA = coenzyme A

biological target: T1, Naa80 (Homo sapiens, UniProt Q93015); assay: Nt-acetylation inhibitor assay for Naa80; format: biochemical; conditions: Naa80
T1 construct: The PCR product containing the CDS was inserted into the TOPO TA vector; made in house; host or cells: E. coli BL21 Star (DE3)
T1 sequence (Q93015 1-308 isoform Q93015-2): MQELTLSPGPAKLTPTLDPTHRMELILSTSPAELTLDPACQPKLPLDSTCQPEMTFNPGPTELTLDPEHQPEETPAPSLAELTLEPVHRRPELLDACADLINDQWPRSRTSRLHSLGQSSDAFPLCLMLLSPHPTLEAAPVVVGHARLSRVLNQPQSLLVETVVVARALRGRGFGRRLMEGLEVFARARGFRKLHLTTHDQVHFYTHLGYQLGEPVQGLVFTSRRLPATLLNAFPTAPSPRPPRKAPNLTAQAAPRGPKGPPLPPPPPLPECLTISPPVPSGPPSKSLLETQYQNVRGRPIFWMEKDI
Protocol: FIG. 10: (A) IC50 values for inhibitors measured in an Nt-acetylation inhibitor assay for Naa80. (B) Ki-values for CoA-Ac-DDDI-NH2 (SEQ ID NO: 6) for different human NATs measured in an Nt-acetylation inhibitor assay. All reactions were performed at least three times and in triplicate; errors bars represent standard deviation of each measurement.
The IC50 values for these compounds were tested as described in Foyn H, et al. (2013) “Design, Synthesis, and Kinetic Characterization of Protein N-Terminal Acetyltransferase Inhibitors”. ACS Chem Biol 8:1121-1127; and Foyn H, et al. (2017) “DTNB-Based quantification of in vitro enzymatic N-terminal acetyltransferase activity”, Methods Mol. Biol. 1574:9-15. Briefly, a colorimetric acetylation assay, 5,5′-dithiobis-(2-nitrobenzoic acid) (DTNB) assay was used to measure the catalytic activity of NATs after incubation with NAT inhibitors. In the DTNB assay, thiols present in the enzymatic product, CoA, cleaves DTNB and produces 2-nitro-5-thiobenzoate (NTB-), which absorbs light with a wavelength of 412 nm. NTB- forms in a 1:1 molar ratio to the thiol groups present in the sample. Therefore, NTB- was quantified by measuring the absorbance at 412 nm and indirectly measures peptide Nt-acetylation. […] After 30 min-60 min incubation at 37° C., the enzyme activity was quenched with quenching buffer (3.2 M guanidinium-HCl, 100 mM sodium phosphate dibasic pH 6.8). Triplicates were run for all positive samples, while negative controls were duplicated. As a negative control, reactions without enzyme were incubated at 37° C. before the reaction was quenched and added enzyme. In order to measure CoA production, 2 mM DTNB (dissolved in 100 mM sodium phosphate dibasic pH 6.8 and 10 mM EDTA) was added to the quenched reaction and the absorbance at 412 nm was measured with a spectrophotometer (Epoc). Background absorbance (determined in negative controls) was subtracted from the absorbance determined in each individual reaction. Thiophenolate production was quantified assuming ε=13.7×103 M−1 cm−1. For NatA and NatB enzyme complex inhibition, immunoprecipitation was performed using Naa15 ab (custom made, Arnesen T, Anderson D, Baldersheim C, Lanotte M, Varhaug J E, Lillehaug J R. (2005) Identification and characterization of the human ARD1-NATH protein acetyltransferase complex. Biochemical J 386(Pt 3):433-43.) or Naa20 ab (Nat5, abnova) respectively and protein A/G magnetic agarose beads (Millipore). A similar Nt-acetylation reaction was performed as previously described and the enzymatic activity was quenched with a final concentration of 1% TFA and analyzed by HPLC (Evjenth R, Van Damme P, Gevaert K, Arnesen T (2013) HPLC-based Quantification of in vitro N-terminal Acetylation. Methods Mol Biol 981:95-102.).
We then pursued Naa80 bisubstrate analogue inhibitors based on the results of the substrate screening and the sequences of the cellular substrates processed β- and γ-actin. We synthesized bisubstrate conjugates of Coenzyme A coupled to the tetrapeptides MDEL-NH2 (SEQ ID NO: 8), DDDI-NH2 (SEQ ID NO: 6), EEEI-NH2 (SEQ
ID NO: 7), and MLGT-NH2 (SEQ ID NO: 52) via an acetamide (Ac) linker.
The following additional Naa80 bisubstrate analogue inhibitors were produced and tested as described above: […]

Compound	pIC50
CC(C)C[C@H](NC(=O)[C@H](CCC(=O)O)NC(=O)[C@H](CCC(=O)O)NC(=O)[C@H](CCC(=O)O)NC(=O)CSCCNC(=O)CCNC(=O)C(O)C(C)(C)COP(=O)(O)OP(=O)(O)OCC1OC(n2cnc3c(N)ncnc32)C(O)C1OP(=O)(O)O)C(N)=O (some centres unmarked) [EEEL]	5.94

same assay, conditions: at the highest concentration tested of 1000 μM

Compound	inhibition of Naa80
CoA-Ac-MLGT-NH2 ({CoA-Ac′}-MLGT-NH2)	did not show detectable inhibition

biological target: T1, Naa80; assay: Naa80 substrate screening assay (peptide acetylation by purified Naa80); format: biochemical; conditions: Naa80 mediated acetylation of 24-mer peptide substrates
From the text: In order to investigate the in vitro activity of Naa80 further, an enzyme activity screening assay on purified Naa80 was undertaken using a broad substrate library (including amino acids, nucleosides, coenzymes, amines, saccharides, vitamins, antioxidants and peptides) modified from Kuhn et al. (Kuhn et al. (2013) “Broad-substrate screen as a tool to identify substrates for bacterial Gcn5-related N-acetyltransferases with unknown substrate specificity”. Protein Science 22(2):222-230). Among all of the potential substrates tested, only the peptides with N-terminal sequence of MDEL24 (SEQ ID NO: 45), DDDI24 (SEQ ID NO: 41) and EEEI24 (SEQ ID NO: 40) were acetylated, as shown in the following table:
The 24-mer substrate peptides differed in their 7 N-terminal amino acids while the 17 C-terminal residues (RWGRPVGRRRRPVRVYP, SEQ ID NO: 39) were kept constant: EEEI24 (EEEIAAL, SEQ ID NO: 40), DDDI24 (DDDIAAL, SEQ ID NO: 41), MDDD24 (MDDDIAA, SEQ ID NO: 42), SESS24 (SESSSKS, SEQ ID NO: 43), AVFA24 (AVFADLD, SEQ ID NO: 44), MDEL24 (MDELFPL, SEQ ID NO: 45), MELL24 (MELLSPP, SEQ ID NO: 46), MLGT24 (MLGTGPA, SEQ ID NO: 47), MTNK24 (MTNKSSL, SEQ ID NO: 48), MLGP24 (MLGPEGG, SEQ ID NO: 49), MAPL24 (MAPLDLD, SEQ ID NO: 50), MKKS24 (MKKSYSG, SEQ ID NO: 51).
Both MDEL (p65, SEQ ID NO: 8) and MDDD24 (unprocessed β-actin, SEQ ID NO: 42) represent cellular NatB substrates.

Compound	Product formation
MKKS24: 24-mer substrate peptide: N-terminal MKKSYSG (SEQ ID NO: 51) plus constant RWGRPVGRRRRPVRVYP (MKKSYSGRWGRPVGRRRRPVRVYP)	3.37 (±1.71) μM
MAPL24: 24-mer substrate peptide: N-terminal MAPLDLD (SEQ ID NO: 50) plus constant RWGRPVGRRRRPVRVYP (MAPLDLDRWGRPVGRRRRPVRVYP)	2.28 (±0.61) μM
DDDI24: 24-mer substrate peptide: N-terminal DDDIAAL (SEQ ID NO: 41) plus constant RWGRPVGRRRRPVRVYP (DDDIAALRWGRPVGRRRRPVRVYP)	50.5 (±1.0) μM
MLGP24: 24-mer substrate peptide: N-terminal MLGPEGG (SEQ ID NO: 49) plus constant RWGRPVGRRRRPVRVYP (MLGPEGGRWGRPVGRRRRPVRVYP)	2.06 (±1.49) μM
EEEI24: 24-mer substrate peptide: N-terminal EEEIAAL (SEQ ID NO: 40) plus constant RWGRPVGRRRRPVRVYP (EEEIAALRWGRPVGRRRRPVRVYP)	42.4 (±0.95) μM
MTNK24: 24-mer substrate peptide: N-terminal MTNKSSL (SEQ ID NO: 48) plus constant RWGRPVGRRRRPVRVYP (MTNKSSLRWGRPVGRRRRPVRVYP)	−4.25 (±1.75) μM
SESS24: 24-mer substrate peptide: N-terminal SESSSKS (SEQ ID NO: 43) plus constant RWGRPVGRRRRPVRVYP (SESSSKSRWGRPVGRRRRPVRVYP)	1.14 (±3.35) μM
MELL24: 24-mer substrate peptide: N-terminal MELLSPP (SEQ ID NO: 46) plus constant RWGRPVGRRRRPVRVYP (MELLSPPRWGRPVGRRRRPVRVYP)	2.15 (±0.40) μM
AVFA24: 24-mer substrate peptide: N-terminal AVFADLD (SEQ ID NO: 44) plus constant RWGRPVGRRRRPVRVYP (AVFADLDRWGRPVGRRRRPVRVYP)	−0.96 (±0.84) μM
